What was measured:
[1] = molecular target: T1, human CD3 (on human Pan-T cells or donor PBMC) (human, UniProt P07766 23-207; P04234 22-171; P09693 23-182; P20963 22-164); test: cell-based or functional assay
[2] = molecular target: T1, human CD3 (on human Pan-T cells or …); test: cell-based or functional assay; remark: listed apart in the source

T1 sequence (P07766 23-207, chain 1 of 4): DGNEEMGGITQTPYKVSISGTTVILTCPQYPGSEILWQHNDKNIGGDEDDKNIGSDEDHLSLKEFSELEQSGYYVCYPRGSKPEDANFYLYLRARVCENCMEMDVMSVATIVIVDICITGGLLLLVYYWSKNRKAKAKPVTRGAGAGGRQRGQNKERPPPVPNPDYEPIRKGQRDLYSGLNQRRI
T1 sequence (P04234 22-171, chain 2 of 4): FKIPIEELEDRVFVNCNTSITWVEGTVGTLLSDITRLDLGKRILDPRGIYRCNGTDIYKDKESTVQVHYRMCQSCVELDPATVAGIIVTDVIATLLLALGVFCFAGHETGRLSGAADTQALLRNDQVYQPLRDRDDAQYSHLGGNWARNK
T1 sequence (P09693 23-182, chain 3 of 4): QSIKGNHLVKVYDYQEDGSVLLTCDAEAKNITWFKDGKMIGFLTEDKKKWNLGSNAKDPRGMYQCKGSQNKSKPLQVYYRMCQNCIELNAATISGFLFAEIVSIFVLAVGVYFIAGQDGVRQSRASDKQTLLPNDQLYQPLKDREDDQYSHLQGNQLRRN
T1 sequence (P20963 22-164, chain 4 of 4): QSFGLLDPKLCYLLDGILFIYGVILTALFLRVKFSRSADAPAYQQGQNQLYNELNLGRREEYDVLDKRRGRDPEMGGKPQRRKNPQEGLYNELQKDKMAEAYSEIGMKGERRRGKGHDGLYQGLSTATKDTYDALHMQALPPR

| Cytokine Release Assay (IFNγ), Donor 0, EC50 [1] [nM] | Cytokine Release Assay (IFNγ), Donor 0, gMFI max [1] [gMFI] | Cytokine Release Assay (IFNγ), Donor 1, gMFI max [1] [gMFI] | Cytokine Release Assay (IFNγ), Donor 2, EC50 [1] [nM] | Cytokine Release Assay (IFNγ), Donor 2, gMFI max [1] [gMFI] | Cytokine Release Assay (IFNγ), Donor 3, gMFI max [1] [gMFI] | RTCC Assay, Donor 0, EC50 [2] [nM] | RTCC Assay, Donor 0, gMFI max [2] [gMFI] | RTCC Assay, Donor 1, EC50 [2] [nM] | RTCC Assay, Donor 1, gMFI max [2] [gMFI] | RTCC Assay, Donor 2, EC50 [2] [nM] | RTCC Assay, Donor 2, gMFI max [2] [gMFI] | RTCC Assay, Donor 3, EC50 [2] [nM] | RTCC Assay, Donor 3, gMFI max [2] [gMFI] | Cytokine Release Assay (IFNγ), Donor 3, EC50 [1] [nM] | Cytokine Release Assay (IFNγ), Donor 1, EC50 [1] [nM] | Binder |
| --- | --- | --- | --- | --- | --- | --- | --- | --- | --- | --- | --- | --- | --- | --- | --- | --- |
| 0.0832 | 983000 | 8040 | 0.0468 | 31400 | 104000 | 0.102 | 29900 | 0.006 | 78200 | 0.028 | 64200 | 0.045 | 85600 |  |  | CD3 × CD33-BspAb85 (bispecific antibody) chain 1: EVQLVESGGGLVKPGGSLRLSCAASGFTFSSYSMNWVRQAPGKCLEWVSSISRSSGYIFYADSVKGRFTISRDNAKNSLYLQMNSLRAEDTAVYYCVRERVGAGFDYWGQGTLVTVSSGGGGSGGGGSGGGGSGGGGSNFMLTQPHSVSESPGKTVAISCTRSSGSIASNYVQWYQQRPGSSPTAVIYEDNQRPSGVPDRFSGSIDSSSNSAFLTISGLKTEDEADYYCQSYDSSNRVFGCGTKLTVLDKTHTCPPCPAPEFEGGPSVFLFPPKPKDTLMISRTPEVTCVVVDVSHEDPEVKFNWYVDGVEVHNAKTKPREEQYNSTYRVVSVLTVLHQDWLNGKEYKCKVSNKALPASIEKTISKAKGQPREPQVYTLPPCREEMTKNQVSLWCLVKGFYPSDIAVEWESNGQPENNYKTTPPVLDSDGSFFLYSKLTVDKSRWQQGNVFSCSVMHEALHNHYTQKSLSLSPGK chain 2: EVQLVQSGAEVKKPGSSVKVSCKASGYTITDSNIHWVRQAPGQSLEWIGYIYPYNGGTDYNQKFKNRATLTVDNPTNTAYMELSSLRSEDTAFYYCVNGNPWLAYWGQGTLVTVSSASTKGPSVFPLAPSSKSTSGGTAALGCLVKDYFPEPVTVSWNSGALTSGVHTFPAVLQSSGLYSLSSVVTVPSSSLGTQTYICNVNHKPSNTKVDKRVEPKSCDKTHTCPPCPAPEFEGGPSVFLFPPKPKDTLMISRTPEVTCVVVDVSHEDPEVKFNWYVDGVEVHNAKTKPREEQYNSTYRVVSVLTVLHQDWLNGKEYKCKVSNKALPASIEKTISKAKGQPREPQVCTLPPSREEMTKNQVSLSCAVKGFYPSDIAVEWESNGQPENNYKTTPPVLDSDGSFFLVSKLTVDKSRWQQGNVFSCSVMHEALHNRFTQKSLSLSPGK chain 3: DIQLTQSPSTLSASVGDRVTITCRASESLDNYGIRFLTWFQQKPGKAPKLLMYAASNQGSGVPSRFSGSGSGTEFTLTISSLQPDDFATYYCQQTKEVPWSFGQGTKVEVKRTVAAPSVFIFPPSDEQLKSGTASVVCLLNNFYPREAKVQWKVDNALQSGNSQESVTEQDSKDSTYSLSSTLTLSKADYEKHKVYACEVTHQGLSSPVTKSFNRGEC |
| 2.35 | 573000 | 4690 | 2.68 | 18500 | 152000 | 1.71 | 24100 | 0.151 | 67300 | 0.697 | 59100 | 1.58 | 83500 | 7.93 |  | CD3 × CD33-BspAb86 (bispecific antibody) chain 1: EVQLVESGGGLVKPGGSLRLSCAASGFTFSSYSMNWVRQAPGKCLEWVSSISRSGTYIYYADSVKGRFTISRDNAKNSLYLQMNSLRAEDTAVYYCARERWELLYFDYWGQGTLVTVSSGGGGSGGGGSGGGGSGGGGSQTVVTQEPSLTVSPGGTVTLTCASSTGAVTSGYYPNWFQQKPGQAPRALIYSTSNKHSWTPARFSGSLLGGKAALTLSGVQPEDEAEYYCLLYYGGAYVFGCGTKVTVLDKTHTCPPCPAPEFEGGPSVFLFPPKPKDTLMISRTPEVTCVVVDVSHEDPEVKFNWYVDGVEVHNAKTKPREEQYNSTYRVVSVLTVLHQDWLNGKEYKCKVSNKALPASIEKTISKAKGQPREPQVYTLPPCREEMTKNQVSLWCLVKGFYPSDIAVEWESNGQPENNYKTTPPVLDSDGSFFLYSKLTVDKSRWQQGNVFSCSVMHEALHNHYTQKSLSLSPGK chain 2: EVQLVQSGAEVKKPGSSVKVSCKASGYTITDSNIHWVRQAPGQSLEWIGYIYPYNGGTDYNQKFKNRATLTVDNPTNTAYMELSSLRSEDTAFYYCVNGNPWLAYWGQGTLVTVSSASTKGPSVFPLAPSSKSTSGGTAALGCLVKDYFPEPVTVSWNSGALTSGVHTFPAVLQSSGLYSLSSVVTVPSSSLGTQTYICNVNHKPSNTKVDKRVEPKSCDKTHTCPPCPAPEFEGGPSVFLFPPKPKDTLMISRTPEVTCVVVDVSHEDPEVKFNWYVDGVEVHNAKTKPREEQYNSTYRVVSVLTVLHQDWLNGKEYKCKVSNKALPASIEKTISKAKGQPREPQVCTLPPSREEMTKNQVSLSCAVKGFYPSDIAVEWESNGQPENNYKTTPPVLDSDGSFFLVSKLTVDKSRWQQGNVFSCSVMHEALHNRFTQKSLSLSPGK chain 3: DIQLTQSPSTLSASVGDRVTITCRASESLDNYGIRFLTWFQQKPGKAPKLLMYAASNQGSGVPSRFSGSGSGTEFTLTISSLQPDDFATYYCQQTKEVPWSFGQGTKVEVKRTVAAPSVFIFPPSDEQLKSGTASVVCLLNNFYPREAKVQWKVDNALQSGNSQESVTEQDSKDSTYSLSSTLTLSKADYEKHKVYACEVTHQGLSSPVTKSFNRGEC |
| 0.0418 | 1.6e+06 | 45100 | 0.0396 | 66800 | 475000 | 0.054 | 38700 | 0.006 | 63000 | 0.009 | 51900 | 0.011 | 82700 | 0.0403 | 0.191 | CD3 × CD33-BspAb115 (bispecific antibody) chain 1: NFMLTQPHSVSESPGKTVTISCTRTSGSIASNYVQWYQQRPGSSPTTVIYEDNQRPSGVPDRFSGSIDSSSNSASLTISGLKTEDEAAYYCQSYDRSNRVFGCGTKLTVLGGGGSGGGGSGGGGSGGGGSQVQLQESGPGLVKPSETLSLTCTVSGGSISSYYWSWIRQPAGKCLEWIGRIYTSGSTKYNPSLKSRVTMSVDTSKNQFSLKLISVTAADTAVYFCARERIRDLYFDYWGQGTLVTVSSDKTHTCPPCPAPEFEGGPSVFLFPPKPKDTLMISRTPEVTCVVVDVSHEDPEVKFNWYVDGVEVHNAKTKPREEQYNSTYRVVSVLTVLHQDWLNGKEYKCKVSNKALPASIEKTISKAKGQPREPQVYTLPPCREEMTKNQVSLWCLVKGFYPSDIAVEWESNGQPENNYKTTPPVLDSDGSFFLYSKLTVDKSRWQQGNVFSCSVMHEALHNHYTQKSLSLSPGK chain 2: EVQLVQSGAEVKKPGSSVKVSCKASGYTITDSNIHWVRQAPGQSLEWIGYIYPYNGGTDYNQKFKNRATLTVDNPTNTAYMELSSLRSEDTAFYYCVNGNPWLAYWGQGTLVTVSSASTKGPSVFPLAPSSKSTSGGTAALGCLVKDYFPEPVTVSWNSGALTSGVHTFPAVLQSSGLYSLSSVVTVPSSSLGTQTYICNVNHKPSNTKVDKRVEPKSCDKTHTCPPCPAPEFEGGPSVFLFPPKPKDTLMISRTPEVTCVVVDVSHEDPEVKFNWYVDGVEVHNAKTKPREEQYNSTYRVVSVLTVLHQDWLNGKEYKCKVSNKALPASIEKTISKAKGQPREPQVCTLPPSREEMTKNQVSLSCAVKGFYPSDIAVEWESNGQPENNYKTTPPVLDSDGSFFLVSKLTVDKSRWQQGNVFSCSVMHEALHNRFTQKSLSLSPGK chain 3: DIQLTQSPSTLSASVGDRVTITCRASESLDNYGIRFLTWFQQKPGKAPKLLMYAASNQGSGVPSRFSGSGSGTEFTLTISSLQPDDFATYYCQQTKEVPWSFGQGTKVEVKRTVAAPSVFIFPPSDEQLKSGTASVVCLLNNFYPREAKVQWKVDNALQSGNSQESVTEQDSKDSTYSLSSTLTLSKADYEKHKVYACEVTHQGLSSPVTKSFNRGEC |
| 0.191 | 1.71e+06 | 10800 | 0.126 | 31600 | 513000 | 0.147 | 34800 | 0.012 | 76900 | 0.034 | 62300 | 0.047 | 84000 | 0.0851 |  | CD3 × CD33-BspAb90 (bispecific antibody) chain 1: not shown chain 2: EVQLVQSGAEVKKPGSSVKVSCKASGYTITDSNIHWVRQAPGQSLEWIGYIYPYNGGTDYNQKFKNRATLTVDNPTNTAYMELSSLRSEDTAFYYCVNGNPWLAYWGQGTLVTVSSASTKGPSVFPLAPSSKSTSGGTAALGCLVKDYFPEPVTVSWNSGALTSGVHTFPAVLQSSGLYSLSSVVTVPSSSLGTQTYICNVNHKPSNTKVDKRVEPKSCDKTHTCPPCPAPEFEGGPSVFLFPPKPKDTLMISRTPEVTCVVVDVSHEDPEVKFNWYVDGVEVHNAKTKPREEQYNSTYRVVSVLTVLHQDWLNGKEYKCKVSNKALPASIEKTISKAKGQPREPQVCTLPPSREEMTKNQVSLSCAVKGFYPSDIAVEWESNGQPENNYKTTPPVLDSDGSFFLVSKLTVDKSRWQQGNVFSCSVMHEALHNRFTQKSLSLSPGK chain 3: DIQLTQSPSTLSASVGDRVTITCRASESLDNYGIRFLTWFQQKPGKAPKLLMYAASNQGSGVPSRFSGSGSGTEFTLTISSLQPDDFATYYCQQTKEVPWSFGQGTKVEVKRTVAAPSVFIFPPSDEQLKSGTASVVCLLNNFYPREAKVQWKVDNALQSGNSQESVTEQDSKDSTYSLSSTLTLSKADYEKHKVYACEVTHQGLSSPVTKSFNRGEC |
